For two substances, Kd and ratio bound/total results are on record in PMC2150735.

Like-named read-outs stand apart in the source and are kept apart here.

In general, Kd refers to the free concentration of one partner at which half of the binding sites on the other are occupied at equilibrium, for simple one-to-one binding. Low values mean tighter binding, high ones weaker binding.

Test [1] deals with Crm1-His6 (human) (UniProt O14980). The test is described as follows: ELISA. On the technique in general: In an ELISA, binding on a coated surface is turned into a signal by an enzyme label.
For test [2] the target is unchanged. Description: ELISA. The source holds these as a separate data set.
Another test deals with GST-RanBP3 (human). The test is described as follows: pull-down.

As to GST-RanBP3 (natural protein), the dissociation constant Kd in the test with Crm1-His6 (human) [1] came out at 0.106 µM; in the test with Crm1-His6 (human) [2], 0.064 µM.
Take “Crm1-His6 (from UniProt O14980 1-1071) (receptor)”: in the test with GST-RanBP3 (human), the ratio bound/total at 1 min, with RanBP1 came to 0.52; the ratio bound/total at 1 min, without RanBP1 amounted to 0.59; the ratio bound/total at 10 min, with RanBP1 was 0.39.
